Assay: soluble on expression in E. coli; label from the status in PepcDB or PDB records

Sequence	soluble on expression in E. coli
GYSQYNIHGNQFYNLGIDYAYRWHRFSFQGETAMGKQGSATLNRFQYSPVEGTQLMIVQRYYSYNYWAMFAHSFGEGSAVQNEQGYYLGVETSPFRYWHILASFDLFSFPWKKYRISKPSRGMDGLLQATFTPHNNLTMYLKYRYKQKERDLTGSKENLTLPIFHHQLRYRLNYFYGDVFSCRTTLDYNHFHSQDRAASKGYQVTQMMSSQLPWTRLFADVQGSYFSTDDYDSRVYVSEKGLLYTFYTPSFQGRGFRCAVRLRYEPNEHWMFITKFGETVYLDRNEIGSGNDLILGNKKADVQMQLRIKF	not soluble
HARKSLTVLVVGESARAENFGILGYGRNTTPNLNKENGLVAFTDVYSCGTETAVSVPCMFSNMGRKNYNATKARNQEGLLDVLKHAGIEVAWRDNQSGCKGTCDRVTFQDVSNLTDPLLCNSHECRDEILLQNLQGFIDSLDKDTVLVLHQMGSHGPEYYKRYPKEFEKFTPVCESNALNNCSRDSIVNAYDNTLLYTDHVLSTLIDLLRSNQAKVDTAMVYLSDHGESLGEYNLFLHGTPYVLAPDQQKHVPMLIWLSDTYQKSFAVTPDCLAKQRNAPLSQDNLFHSMLGLLKVDTKVYDPSLDMFAGCRSELAAADKQ	not soluble
HAYKNALYDDEVSQFSNNWPLYYPLTARKFIYKHDLVDENIASKNRVELTNIERSSLNYPLAPIQVQSKEKQPNVLFILVDAWRYSDATPEVMPNVSKFAEKTVNFTQHMSGGNSTQAGIFSLFYSLPATYWESFYASQRSPVFMDTLQAEGYRMGIFGSAPLTSPPLSRTVFKKVSDLTLKQTGETAVERDQQITDKFIEFQKQDSDKPYFGFLFYDAAHGTVFPEPEFAKFKPYWERVDHILLNNDFDASLYHNRYKNSLYYIDSLIDDVLKNVDLDNTIVVISSDHGEEFNDHKMNYWGHTGNYSDVQVHVPLYVYMPNRQPEQIDYRTTHFDVVPTMMNTLFDVQGTTSSYSVGHNLFDSSAPRDWYIAGSYYNYALVGKELMLVVNPGGHSQQLNRQLKVEKEQKVPVDIIRHSLDEMSRFYKKG	not soluble
HFASTRSFLDTVKLDHAIWKNNIYRLLQSGSFGETVNSHSECRLGQWYYRGDGKAYSQLRSYAQLEAPHKGVHDSGRDAMNHAKSGNMAGMVTSINSMEDTSEQVVIHIDRLMDEIIAN	not soluble
HHHHHHGSAQLPSPTNGKKWEKVEQLSDEFDGNSIDTNKWYDYHPFWEGRAPSNFKKGDAFVSDGFLNLRSTLRKEPSSVQDPFKDIWVDAAAAVSKTKAQPGYYYEARFMASSLSMTSSFWFRVGQFSSIDVIEHIGDPSKENRQDDLPYQYHVNTHYYGKHAGLQPLGTEYKMPGRGRDNFYTYGFWWKSPNELLFYFNGKQVMRIVPRVPLDEELRMIFDTEVFPFATAGVANIGLPKPENLRDNSKNTMKVDWVRVYKLVDGTA	soluble
HHHHHHHHHHMLPTPYVKCDYDKVYEPAEDSFLILDCLEKEHDFLKQKFGNRLAIVCEIGSGSGIVTTFLMQNKIIPQENSIHLAVDINPWALEATLDTAKLNSCKSSFLEVIQADLNSSIRNNQVDVLIFNPPYVPAECVPDVPGSREEADQWLDLALLGGKDGMAITDKLLRQLEQILSPDGVAYILFCARNKPKEVIKRFVDTYKWNVKLIETRKAGWEVLSVYSFTR	not soluble
HHSVEAPQVKKRMGKFPFVKASKKESEEISKQLHNALDIELPSESTVWLRDKDVWLFPDALEPMIGELRFSRMGIKIAEAHKNGYRWQHQVATALATGAESNAIELTIEEAREWYMGRDVRPQIIPEGLKTGKGEVLVKYQGAIIGLGKWVSNRIKNGLPRELVRDKNLF	not soluble
HHYVKGELKIAASFTIGEYILPPLLAQLQKLYPELNLDVMIGNTEEVSERVRMLQADIGLIEGHTNENELEIEPFMEDEMCIAAPNQHPLAGRKEISISDLQNEAWVTREKGSGTREYLDHVLSSNGLRPKSMFTISSNQGVK	not soluble
HMRQRHILFANVQGHGHVYPSLGLVSELARRGHRITYVTTPLFADEVKAAGAEVVLYKSEFDTFHVPEVVKQEDAETQLHLVYVRENVAILRAAEEALGDNPPDLVVYDVFPFIAGRLLAARWDRPAVRLTGGFAANEHYSLFKELWKSNGQRHPADVEAVHSVLVDLLGKYGVDTPVKEYWDEIEGLTIVFLPKSFQPFAETFDERFAFVGPTLTGRDGQPGWQPPRPDAPVLLVSLGNQFNEHPEFFRACAQAFADTPWHVVMAIGGFLDPAVLGPLPPNVEAHQWIPFHSVLAHARACLTHGTTGAVLEAFAAGVPLVLVPHFATEAAPSAERVIELGLGSVLRPDQLEPASIREAVERLAADSAVRERVRRMQRDILSSGGPARAADEVEAYLGRVAP	soluble
HMTPQDHEKAALIMQVLQLTADQIAMLPPEQRQSILILKEQIQKSTGAP	soluble
HRIDTKTAQKDKFGAGKNGFTRGNPQTGTPATDLDDDYFDMLQEELCSVVEASGASLEKGRHDQLLTALRALLLSRKNPFGDIKSDGTVQTALENLGLGEGAKLNAATATLGRTGFIAIPVMIGGIEQSVIIQWGWNAAKASASGGDGNTVVFPVAFNNACVAVVANYDNVSAPINAVATGGYTTTSFLLRCAAQTGSYYYNWIAIGY	not soluble
HRTRIEDESIHKLVLDAHRCIHQHLDVLHQQLHQHCEECDLSNIDDAGLEQRLNEWRDEDDSSARMVLQQLHLIYRMLPELHSLASKFAVRVN	not soluble
HSGEDLPMVAPGNVRVNVVNSTLAEVHWDPVPLKSIRGHLQGYRIYYWKTQSSSKRNRRHIEKKILTFQGSKTHGMLPGLEPFSHYTLNVRVVNGKGEGPASPDRVFNTPEG	soluble
HTLNKALADTRANLTESVGNAGEVLHDITGVVSTPMPSENDSENLFDSVSNYPTGNKSDTHNAFGSSGKTAPMPYQSAYAPQQRSLSLRESRAAMNTYAELYKKTDDIDLELSRFEQARFGNMPSETPAPQTDTPLSDGIPSQSELPPLGFAIAQLLGIYILAQAEDSLLLIDMHAAAERVNYEKMKRQRQENGNLQSQRLLIPVTFAASHEECAALADYAETLAGFGLELSDMGGNTLAVRAVPAMLGKADVVSLAKDVLNELAQVGSSQTIEEHENRILATMSCHGSIRAGRRLTLPEMNALLRDMENTPRSNQCNHGRPTWVKLTLKELDALFLRGQ	not soluble
HVYAFDIQESAVANTKERLGDMYQARTTLFHKSHDKIAESLPPETHGKVAAAVFNLGYLPGGDKSITTNGSSTIKAIEQLLSIMKDEGLIVLVVYHGHPEGKAEKNDVLEFCRDLDQQTARVLTYGFINQQNDPPFIVAIEKKAQISK	not soluble
IEIRSVVYQIEGQPYESRLVYDSSATALQPGLLMAPNWMGVSRGAEDIARAVAAKGYVVLLADLYGQQLRPSNNDEAGAAMTPLKNDRGLLRKRMQAGLDQLLSQADVSLDVSRIATFGFCFGGCCSLELARTGAELKAAISFHGTLDTPNPADASNIKGSVLVLHGASDPLVPKEQLPAFEEEMNAAGVDWQLHSHGGAFHSFTDPHANVPGMMMYDAKVSARAFKSMHDLLKEVFG	not soluble
IGADVDLATLSGLDGAALHFEQTIFILDNGTGQPTGGEWQGAVGSYFGGAPLHNDIASNQLSLLTYKQKWLDGQLDLHVGRTNGRRYFYIYNCETGVTCNDPILDASSGMLPPPFGAWGGYLKYQVNPRFYVHAGAFESNPVDYLKKRKGLDFSTDDASGTSFLVGIGSKPGDNTTQYELNA	not soluble
ILEQDLNDFMSTGAHGLDLYQLVVGGTAPMLNLVEKGKIPPPATTPEKAGMYELGVNFMAKHHMKQLSVNHWAVDNRERSLYNSLAKTYAE	not soluble
ILVKNLPQDSNCQEVHDLLKDYDLKYCYVDRNKRTAFVTLLNGEQAQNAIQMFHQYSFRGKDLIVQLQPTDALLC	soluble
IPNDILIVNPEAQGLVDGHKVIVKITKYPEGRMSAEGEVISILGHKNDPGMDILSIIYKYGIPQAFPEEVLQQAQNIPDEIDAGEIKNRRDLRDEPLVTIDGADAKDLDDAVHVSRLPNGNFKLGVHIADVSYYVKEKSPIDLEAAERGTSVYLVDRVIPMIPHRLSNGICSLNPQVDRLTLSCEMEITRDGQVVNHEIFQSVIRTNERMTYHDVNKILVEKEEELRNRYELLVPMFEDMEELAAILRKKRFGRGAIDFDFKEAKVLVDEEGKPSDVVIRERGVAEKLIEEFMLAANETVAEHFHWLKLPFMYRIHEDPDSEKLGRFLEFITNFGYVVRGTANTVHPRALQKLLEEVRGEPEEQVISTVMLRSMQQAK	not soluble
IQVFLSARPPAPEVSKIYDNLILQYSPSKSLQMILRRALGDFENMLADGSFRAAPKSYPIPHTAFEKSIIVQTSRMFPVSLIEAARNHFDPLGLETARAFGHKLATAALACFFAREKATNS	soluble
IRTHLNLPSDKKVIMYAPTWRDDEFVSKGKYLFELKIDLDNLYKELGDDYVILLRMHYLISNALDLSGYENFAIDVSNYNDVSELFLISDCLITDYSSVMFDYGILKRPQFFFAYDIDKYDKGLRGFYMNYMEDLPGPIYTEPYGLAKELKNLDKVQQQYQEKIDAFYDRFCSVDNGKASQYIGDLIHK	not soluble
ISTEEAAPDGPPMDVTLQPVTSQSIQVTWKAPKKELQNGVIRGYQIGYRENSPGSNGQYSIVEMKATGDSEVYTLDNLKKFAQYGVVVQAFNRAGTGPSSSEINATTLE	soluble
KGKDDAGEKPDEPADPCGLALQVQAQGTLEQLEAELTGAGQGLALEARAGLLPQAPFPLRTASLKLTREDKSSLAATLDWQPQPGQPGRDRVVATFEAERLDLQRLAGEAIPPAMLSARGGLDAEVDDLSSLHRATLTLDVTKGSSWNRHPLAGKVAASVSALGDPPGAFATAAPAQPHALPGGLWVDQLDVDLQLGPNRVRAQGKLDERAGALKLDAQAPRLDAFWPGIPGAASVKAALDGALARHRGRIEAAYTPADARARVLGRARAQAQLEFSGGWGAGPAAEGAAAGWRGSVSRLTADSAGFALALERPVTLAYVPEALAPQWQWQVGATTLALTFPDKQRVALAHAASRGGAGRWETAGRADALVITAAMVRQILVALDPEAVARAERDSGSPVNAPVPAAQRRISLDASWDLKFAGALAGKVRVARRDGDLRIPGDPPIPLGLRTLVLEANATPTGGQASRLDARLDMATARMGAINGTASATLGGLALDPRQPIRVALDADVTDLAWLGLFVGDTLEVGGMLKANVRAQGSLDGKWNASGTVNGDKLRVVRIDDGVRLIDGMLRARLQDDRVILDSLRFPASLRVMPAEWRTREWVSTNPDAKGGYLEATGQWELSAARGQVRLQLHRFPALQRSDRYGMVSGVVTLDAALPRISINGDITADAGWVSLEILQGVPTLDDDVKVVRAGQKNAQGDGPPLQIDMNLKVDMGPRFYITGMGLDAGLLGSIQIRLQEGRLTGYGALRTRGGGIEAYGQKLRLRRGTLTFQGRLDNPLLDIEALRTGEQVEAGVRVAGTAQRPRIDLVSYPDVSDVEKLSWLVLGRGPDASGGDTALLLSVGTALLGGGQPFYKQFGLDDVSVRSGAIGSSGSLLPDRTVAAGVNRDSDADLATQFLVASKRFANGITLSVEQALAGSETVGRA	not soluble
KGMIRPRGLNQQRYVKEVLSNDINFGIGPAGTGKTYLAVACAVDALEREQIRRILLVRPAVEAGEKLGFLPGDLAQKIDPYLRPLYDALYEMLGFEYVAKLIEKQVIEVAPLAYMRGRTLNNSFIILDESQNTTVEQMKMFLTRIGFGSTAVITGDITQVDLPKGTRSGLTHVIDVLKDVPGISFTHFKPKDVVRHPLVQRIVEAYERFDDQLSDGPSGNNG	soluble
KGMTPPKTVNFKMKGVADAAFSHEFHLGMYKCNECHTKLFAYKAGAKRFTMADMDKGKSCGACHNGKDAFSSASDCGKCHPG	soluble

Source: the DeepSol protein solubility set
